Tests used:
NCI-H441 cells = experiment: Wound healing (migration) assay with NCI-H441 cells; type: cell-based
Protocol: HGF stimulates motility. To determine whether the anti-HGF antibodies were able to inhibit migration, NCI-H441 cells were grown to high density and a gap was introduced with a P200 pipette tip. Cells were then stimulate to migrate across the gap with HGF (100 ng/ml) in presence or in absence of 11E1. Wells with 11E1 alone were also evaluated. Each tested condition was evaluated as a sextuplicate and 3 independent experiments were performed. After an overnight incubation, cells were visualized with an Axio Vision Camera (objective ×4).

NCI-H441 [1] = experiment: In vivo combination of 224G11 and Navelbine on NCI-H441 xenograft model (Example 19); set-up: species or system Athymic nude mice; conditions: day 41 post first injection
Protocol: NCI-H441 cells from ATCC were routinely cultured in RPMI 1640 medium, 10% FCS, 1% L-Glutamine. Cells were split two days before engraftment being in exponential phase of growth. Ten million NCI-H441 cells were engrafted to Athymic nude mice. […] Mice were treated i.p. either with a loading dose of 2 mg of 224G11 Mab/mouse and then twice a week with 1 mg of antibody/mouse until Day 38 or with 3 injections of Navelbine® (D5, D12, D19) at 8 mg/kg. A third group administered with the combine treatment was also included. Navelbine® was given by i.p. injections. Tumor volume was measured twice a week and calculated by the formula: π/6×length×width×height and animal weights were monitored every day over the period of Navelbine® treatment. Statistical analysis was performed at each measured time using either a t-test or a Mann-Whitney test. […] Results are represented in FIG. 45.

NCI-H441 [2] = experiment: In vivo combination of 224G11 and Doxorubicin on NCI-H441 xenograft model; set-up: species or system Athymic nude mice; conditions: D11 to D39; Doxorubicin 5 mg/kg i.v.
Protocol: NCI-H441 cells from ATCC were routinely cultured in RPMI 1640 medium, 10% FCS, 1% L-Glutamine. Cells were split two days before engraftment being in exponential phase of growth. Ten million NCI-H441 cells were engrafted to Athymic nude mice. […] Mice were treated i.p. either with a loading dose of 2 mg of 224G11 Mab/mouse and then twice a week with 1 mg of antibody/mouse or with 4 injections of Doxorubicin (D5, D12, D19, D26) at 5 mg/kg. A third group administered with the combine treatment was also included. Doxorubicin was given by i.v. injections. Tumor volume was measured twice a week and calculated by the formula: π/6×length×width×height and animal weights were monitored every day over the period of Doxorubicin treatment. Statistical analysis was performed at each measured time using either a t-test or a Mann-Whitney test. […] Results are represented in FIG. 46.

U87-MG = experiment: In vivo combination of 224G11 and Temozolomide on U87MG xenograft model; set-up: species or system Athymic nude mice; conditions: D22 to D32; Temozolomide 5 mg/kg i.p.
Protocol: U87-MG cells from ATCC were routinely cultured in DMEM medium, 10% FCS, 1% L-Glutamine. Cells were split two days before engraftment being in exponential phase of growth. Five million U87-MG cells were engrafted to Athymic nude mice. […] Mice were treated i.p. either with a loading dose of 2 mg of 224G11 Mab/mouse and then twice a week with 1 mg of antibody/mouse or with 3 injections of Temozolomide (D19, D26, D33) at 5 mg/kg. A third group administered with the combine treatment was also included. Temozolomide was given by i.p. injections. Tumor volume was measured twice a week and calculated by the formula: π/6×length×width×height and animal weights were monitored every day over the period of Temozolomide treatment. Statistical analysis was performed at each measured time using either a t-test or a Mann-Whitney test. […] Results are represented in FIG. 48.

| Molecule | effect on cell migration in presence of HGF (NCI-H441 cells; NCI-H441, HGF 100 ng/ml) | agonist effect on cell migration, added alone (NCI-H441 cells; NCI-H441, no HGF) | reduction of average tumor volume (NCI-H441 [1]) [%] | anti-tumor activity compared to the control group (NCI-H441 [2]) | anti-tumor activity compared to the control group (U87-MG) |
| --- | --- | --- | --- | --- | --- |
| 11E1: murine anti-c-Met monoclonal antibody, IgG1 kappa; heavy chain SEQ ID No. 62, light chain SEQ ID No. 63 (antibody, V domains shown, mus musculus) VH: QVQLQQSGAELAKPGASVKMSCKASGYTFTSYWMNWVKQRPGQGLEWIGYINPTTGSTDYNQKLKDKATLTADKSSNTAYMQLSSLTSEDSAVYYCAIGGYGSWFAYWGQGTLVTVSA VL: QIVLTQSPAIMSASPGEKVTLTCSASSSVSSTYLYWYQQKPGSSPKLWIYTTSILASGVPARFSGSGSGTSYSLTISSMETEDAASYFCHQWSSYPFTFGSGTKLDIK | full antagonist | no agonist effect |  |  |  |
| 224G11: murine anti-c-Met monoclonal antibody, IgG1 kappa; heavy chain SEQ ID No. 18, light chain SEQ ID No. 21 (antibody, V domains shown, mus musculus) VH: EVQLQQSGPELVKPGASVKISCKTSGYIFTAYTMHWVRQSLGESLDWIGGIKPNNGLANYNQKFKGKATLTVDKSSSTAYMDLRSLTSEDSAVYYCARSEITTEFDYWGQGTALTVSS VL: DIVLTQSPASLAVSLGQRATISCRASESVDSYANSFMHWYQQKPGQPPKLLIYRASNLESGIPARFSGSGSRTDFTLTINPVEADDVATYYCQQSKEDPLTFGSGTKLEMK |  |  | 72 | significant anti-tumor activity | significant anti-tumor activity |

Reference: patent publication US8871909B2, “Antibodies inhibiting c-Met dimerization and uses thereof” (Pierre Fabre Medicament, priority 2007, dated 2014)
